Protein production data for 14 sequences are collected here from a protein production outcome set (Wang et al. 2014).

The nature of this series: label from the status in PepcDB records.
On to “MKPRDTRVKPGSRVSLADWHTDGDAFVGKDKAASMARLDDDRVRLEELQELLYAEGKHRLLVVLQAMDTAGKDSTIRHVFRGVDPLGVRVANFGVPSTHELRHDYLWRVHPHVPASGEIAIFNRSHYEDVLVPRVNGAIGHAECERRYRQINDFERMLSETGTTIRKFYLHISKDEQKKRLEARRDTPKKRWKFQPGDLAVRAQWDDYRAAYDALLSATSTRHAPWHVVPADDKLARNLIVSALLIEALEGLDMRYPEPVAGVAGTPII”, for which the protein production result is given as “not failed”.

Turning to “MMPLKDGDFVLINYTVKVVEDGSERVIDTTLEEVAKKSGIYDPKRVYKEFPVIVGKTSLLGPLEKVLKELDVGERREVEVPPEEAFGEYKKELVVRVPVKRLRRMNIPVRVGEEVEAGGRRGKIIRVTERFAFIDFNHPLAGKKLKIEVEVVGKVDSVEDKARILAARALGLDPDKIHAEVREGGKEITLKLPPEVLGLSDLDALLAKAVSDVREYLSPRKVDVVISIEFPEEAREEAEASDTGEGGEAEGESEQAAEPGGGEERQEG”, the protein production entry is recorded as “failed”.

Regarding “MKNIVAGILAHVDSGKTTLSEAMLYQTGRIRKLGRVDHQDTYLDTDSQEKDRGITIFSKQAELTYEDMHIALLDTPGHVDFGTEMERTLQVLDYAVLVINGMDGVQSHTETLWKLLERYEIPVFIFVNKMDMTGYDREYLMDNIRHRLSDGCVDFLCEDAGEHIAMCDENMLERFLETGENREDDIAKAVADRKLFPCYFGSALKNDGVAELLDGMNRYVTEPRRTDEFGARVFKIGRDDKGERLTYMKITGGTLRLKDVLTLTGRQGEETLEKVNQIRVYSGAKYDMVDHVTAGCVCAVPGLVNTYGRQGIGACPDGELPSLEPVLSYKVMYPTDVDAVTMVSKLRQLEEEDPLLQVQWNEAAGEIYIKVMGQVQLEVVAQMVRDRFGIAITYGQGRITYKETIAAPVMGVGHFEPLRHYAEVHLLLEPMENGSGMCFDSICSEDVLDKNWQRLILTHLQEREFRGVLTGSPITDMKITITAGRAHQKHTEGGDFRQATYRAVRQGLMMAESVLLEPVYAFKIEVPQEYAGRVLADIVKMSGSMDGQEIAGETTVITGHAPVYTMREYYSELTAFSRGTGRLQVDIDGYQPCHNTEEVLAERHYDPELDRFNPSSSVFCAHGAGYLVDWYDVYENMHVKEDPGFEISGQLGYTEDGDVTDIPVNRPGKSVSDMSITDEELSEIFARTFGGDYKDKDVALNGRFRRTTSEYKVNGTSSRGSDGTAGGGASAGTAGDSSNSGYRGNGQYNKSQSRDRQPGNGPVVGSRPADRGIATPGAFKRRKSGEDYVIVDGYNVIFAWDTLRELSEHNIDSARGKLMDILSNYQGYMNCHLIVVFDGYKVKDNKGERFPYDDIEVVYTKEGETADAHIEKLTHELARKHKVTVVTSDGLEQIVTMGQGAIRMSSRDFKLEVERVNEHLRENYLKND”, the protein production result is listed as “failed”.

In the case of “RNRFKWGPASQQILYQAYDRQKNPSKEEREALVEECNRAECLQRGVSPSKAHGLGSNLVTEVRVYNWFANRRKEEAFRQKLAMDAYSSN”, the protein production result is on record as “not failed”.

For the sequence “MLDTVRQELNNFRSPLYRNSIYISLTSLVTAVAGFLFWSVAARLYPSSQVGVASALVSAINLTFTVSMLGLNFALIRFYPQYKERAVGSSLVLAVTASFFVSLVYGLIMGGSESFRGVFSAEFLAIFVTFSMVGTAYNILSTYAIAKRKAEHSFMQGLLFALRFVFLFFLVPLGVFGIVGSFGFGLTLGLIYGLIFIDDIKLSLDVEYLKESFRFSLGNYIASMANVAPNYLMPTLVLTMLGKEEAAYFYIAFAIGNLILFIPNAINTSFFVEGSHGLKDMKRTLKKALAFSYLYLAVATVFVWLFGGYVLELFRPEYVKGFGLLKLMVLGGFFVVPVNFSITILNIQKRVREVVGINLLKAALFLGLSYLLIPRFGIEGVGWGWIGAYSISVFMLFVRFFRKVF”, the protein production result is reported as “failed”.

As for “MAGCRTNAKGNAMPISIRIGNQDLTVDVSSLGAEMQALTSGDGRSWLWTGDAAFWTGRSPILFPIVGKAPDDKIAIDGTVYPMAQHGFARRSEFALAASTETMCRFELAASEATRAVYPFDFQLAVVHAVEGRALTVTAEVTNRDPKPMPFGLGFHSAFAWPLPGASGRDHIVTLDNKGEPALVRLEGGLINPAPLPSPFNAGRLVLDHSMFEQDAMIFPDGAGEGLAYGSEGGPAMRFHFKNLPNLALWTKPGAPFLCIEPWHGTAAEAGASSELSKRPSTTILAPGAVASFAFTVEIPQ”, the protein production entry is reported as “failed”.

“PPGPCLPPRLQGRPKAKEIQLRWGPPLVDGGSPISCYSVEMSPIEKDEPREVYQGSEVECTVSSLLPGKTYSFRLRAANKMGFGPFSEKCDITTAPG”: the protein production result is reported as “not failed”.

Regarding “GGEVHAAWHLRYAGRDFFVKCDERELLPGFTAEADQLELLSRSKTVTVPKVWAVGADRDYSFLVMDYLPPRPLDAHSAFILGQQIARLHQWSDQPQFGLDFDNALSTTPQPNTWQRRWSTFFAEQRIGWQLELAAEKGIAFGNIDAIVEHIQQRLASHQPQPSLLHGDLWSGNCALGPDGPYIFDPACYWGDRECDLAMLPLHTEQ”, the protein production result was “failed”.

In the case of “MSIEVIAVRLTKGMDLKLSLAKLVAEHDIKAGSIASCVGCISDLNLRLAGAESTLTKREPFEIVSVMGTLTPEHQHVHISVSDREGRVWGGHLLEGTVIDTTAELIIHSYSELEFTRAMDDSTGYTELQVNPSKLEHHHHHH”, the protein production result was “not failed”.

As for “SLQCIFLISDSGEVMLEKQLTGHRVDRSICAWFWDQYISQGDSFKALPVIASPTHYLFQIVRDGITFLACSQVEMPPLMAIEFLCRVADVLSEYLGGLNEDLIKDNFIIVYELLDEMIDNGFPLTTEPSILKEMIAPPNLVSKMLSVVTGNASNVSDTLPSGAGSCVPWRPTDPKYSSNEVYVDLVEEMDAIVNRDGELVKCEIYGEVQMNSQLTGFPDLTLSFANPSILEDMRFHPCVRYRPWESHQVLSFVPPDGEFKLMSYRVKKLKNTPVYVKPQITSDSGTCRISVLVGIRSDPGKTIESITLSFQLPHCVSSADLSSNHGTVTILSNKTCTWTIGRIPKDKTPCLSGTLALEPGLERLHVFPTFKLGFKIMGIALSGLRIEKLDLQTIPPRLYKGFRAQTRTGEFDVRL”, the protein production entry is given as “failed”.

In the case of “MIQEIIAFLGRRGEFFYISVFMLLMFFIFLISWLIEPRRLINGVLFTIFFISVFAWITVMINKSTSRGLQRAYNLLLLIVFFGIILILVFAWLFLFWNAYFVWKYESHTLPNLLTLFSGFIALIFSVIFILGPGRYLPHWLSALLASIPAIAIYLGLVLYNFLVNLLLYQIYPRHYKQDYLIVLGAGLINGDQVSKLLAARINRAIQFSNRQYQKGRKRPIIIMSGGQGPDEKVPEALAMAKFAQHRGVSPDHILIEDQSKNTYQNMLFSKQLATNDFGGPNFKATFFSNNYHIFRAALLAKEVGLKANGVGAFTRLYYLPNAIIREFAGVFVMHKRRHFVIMGVIVLFFILQAILAAAGIVKFNVI”, the protein production entry is on record as “failed”.

“RKEDHARLRALNGLLYKALTDLLCTPEVSQELYDLNVELSKVSLTPDFSACRAYWKTTLSAEQNAHMEAVLQRSAAHMRHLLMSQQTLRNVPPIVFVQDKGNAALAELDQLLAVAD”: the protein production entry was “not failed”.

“MTTRRLALFDLDHTLLPLDSDYQWADFLARTGRAGDPAEARRRNDDLMERYNRGELTAEQAAEFMLGLLAAHSPVELAAWHEEFMRDVIRPSLTVQAVDVVRGHLAAGDLCALVTATNSFVTAPIARAFGVQHLIATDPEYRDGRYTGRIEGTPSFREGKVVRVNQWLAGMGLALGDFAESYFYSDSVNDVPLLEAVTRPIAANPSPGLREIAQARGWQVIDLFDHLEDAKS”: the protein production result is on record as “not failed”.

Regarding “MYEVELKGYANDEIFEKVRETFEFMRKEIHEDIYYQHPCRDFSKTDEALRIRIKRFNGHNEVFLTYKGPKIDEKSKTRLEIEVEIQEDVDKYFELLDRLGFKEVLKVVKTREKYYVEKGVTITLDEVEGLGKFIEIETLVKEKDEIPEAVEKLEKILRELGVEKFERRSYLELLLEKRTELNI”, the protein production entry is on record as “not failed”.
